According to the supplement of paper PMC10201428:
± gives the standard deviation of the averaged measurements.

Assays:
[1] = tested on: VchCAST RNA-guided transposition machinery (E. coli BL21(DE3) host, lacZ target); assay: relative integration efficiency (T-LR orientation) vs wild-type transposon end (log2 (normalized fold change)); transposon end mutated: left end; higher = more efficient transposition
Method in brief: (§1)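 In E. coli BL21(DE3), a T7-driven effector plasmid was paired with a pUC57 mini-transposon donor containing 1549 left-end or 1849 right-end barcoded transposon variants. Cells grew on plates with 0.1 mM IPTG at 37°C for 18 h. Relative integration efficiency was derived from Illumina reads of genomic integration junctions against input plasmids, as a log-transformed output/input barcode fold change normalised to reference barcodes.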

[2] = tested on: VchCAST RNA-guided transposition machinery (E. coli BL21(DE3) host, lacZ target); assay: relative integration efficiency (T-RL orientation) vs wild-type transposon end (log2 (normalized fold change)); transposon end mutated: left end; higher = more efficient transposition
Method in brief: as §1

## AATGTTGTTGATGTGTTGCAACCATAAAGTGATATTTAATAATTATTTATAATCAGCAACTTAACCACAAAACAACCATATATTGATATCTCACAAAACAACCATAAGTTGATATTTTTGTGAATCGAGTATTTCAGCAAAACTACTGCAGT
[1]
  relative integration efficiency (log2): < -10
[2]
  relative integration efficiency (log2): -6.86 ± 1.7

## AATGTTGTTGCAACCATAAAGTGATATTTAATAATTATTTATAATCAGCAACTTAACCACAAAACAACCATATATTGATATCTCACAAAACAACCATAAGTTGATATTTTTGTGAATCGAGTATTTCAGCAAAACTACTGCAGTAAGAAAGT
[1]
  relative integration efficiency (log2): -1.44 ± 0.11
[2]
  relative integration efficiency (log2): -0.203 ± 0.26

## TTTTGTGTTGAAACAACCATAAAGTGATAACAAATAATTATTTATAATCAGCAACTTAACCACAAAACAACCATATCTTGATATCGCATAAAACAACCATAAGTTGATATTTTGGTGAAAAGGATATTCCAACCTTCATAGTTTAGTAAGAA
[1]
  relative integration efficiency (log2): -1.23 ± 0.8
[2]
  relative integration efficiency (log2): -0.416 ± 0.29

## TTTTGTGTTGAAACAACCATAAAGTGATAACAACGAATCAATTAAAATCATAGGCTTAATCGAAAAACAACCATATATTGATATCTCATAAAACAACCATAAGTTGATATTTTGGTGAAAAGGATATTCCAACCTTCATAGTTTAGTAAGAA
[1]
  relative integration efficiency (log2): 0.0938 ± 0.43
[2]
  relative integration efficiency (log2): 0.184 ± 0.29

## TTTTGTGTTGAAACAACCATAAAGTGATAACAACGAATCAATTAAAATCATAGGCTTAATCGAAAAACAACCATATCTTGATATCGCACAAAACAACCATAAGTTGATATTTTGGTGAAAAGGATATTCCAACCTTCATAGTTTAGTAAGAA
[1]
  relative integration efficiency (log2): -0.749 ± 0.52
[2]
  relative integration efficiency (log2): -0.684 ± 0.39

## TTTTGTGTTGAAACAACCATAAAGTGATAACAACGAATCAATTAAAATCATAGGCTTAATCGAAAAACAACCATATCTTGATATCGCATAAAACAACCATAAGTTGATATTTTGGTGAAAAGGATATTCCAACCTTCATAGTTTAGTAAGAA
[1]
  relative integration efficiency (log2): -0.599 ± 0.63
[2]
  relative integration efficiency (log2): -0.363 ± 0.32

## TTTTGTGTTGAAACAACCATAAAGTGATAACAACGAATCAATTAAAATCATAGGCTTAATCGAAAAACAACCATATCTTGATATCGCATAAAACAACCATAAGTTGATATTTTGGTGAAACGAGTATTTCAGCAAAACTACTGCAGTAAGAA
[1]
  relative integration efficiency (log2): -1.04 ± 0.28
[2]
  relative integration efficiency (log2): -0.949 ± 0.35

## TTTTGTGTTGAAACAACCATAAAGTGATAACAACGAATCAATTAAAATCATAGGCTTAATCGAAAAACAACCATATCTTGATATCGCATAAAACAACCATAAGTTGATATTTTTGTGAATAGGATATTCCAACCTTCATAGTTTAGTAAGAA
[1]
  relative integration efficiency (log2): -0.791 ± 0.29
[2]
  relative integration efficiency (log2): 0.192 ± 0.22

## TTTTGTGTTGAAACAACCATAAAGTGATATTTACGAATCAATTAAAATCATAGGCTTAATCGAAAAACAACCATATCTTGATATCGCATAAAACAACCATAAGTTGATATTTTGGTGAAAAGGATATTCCAACCTTCATAGTTTAGTAAGAA
[1]
  relative integration efficiency (log2): -0.00585 ± 0.47
[2]
  relative integration efficiency (log2): 0.179 ± 0.12

## TTTTGTGTTGATGCAACCATAAAGTGATAACAACGAATCAATTAAAATCATAGGCTTAATCGAAAAACAACCATATCTTGATATCGCATAAAACAACCATAAGTTGATATTTTGGTGAAAAGGATATTCCAACCTTCATAGTTTAGTAAGAA
[1]
  relative integration efficiency (log2): -0.426 ± 0.46
[2]
  relative integration efficiency (log2): -0.528 ± 0.32
